The values that follow come from IntAct's records for PubMed 20185822.

B1: Autoimmune regulator (Homo sapiens), O43918 (parent)
chain: MATDAALRRLLRLHRTEIAVAVDSAFPLLHALADHDVVPEDKFQETLHLKEKEGCPQAFHALLSWLLTQDSTAILDFWRVLFKDYNLERYGRLQPILDSFPKDVDLSQPRKGRKPPAVPKALVPPPRLPTKRKASEEARAAAPAALTPRGTASPGSQLKAKPPKKPESSAEQQRLPLGNGIQTMSASVQRAVAMSSGDVPGARGAVEGILIQQVFESGGSKKCIQVGGEFYTPSKFEDSGSGKNKARSSSGPKPLVRAKGAQGAAPGGGEARLGQQGSVPAPLALPSDPQLHQKNEDECAVCRDGGELICCDGCPRAFHLACLSPPLREIPSGTWRCSSCLQATVQEVQPRAEEPRPQEPPVETPLPPGLRSAGEEVRGPPGEPLAGMDTTLVYKHLPAPPSAAPLPGLDSSALHPLLCVGPEGQQNLAPGARCGVCGDGTDVLRCTHCAAAFHWRCHFPAGTSRPGTGLRCRSCSGDVTPAPVEGVLAPSPARLAPGPAKDDTASHEPALHRDDLESLLSEHTFDGILQWAIQSMARPAAPFPS

The assay covers variants of B1. The settings on record: with daxx_human DAXX.
In the case of W78R, the “effect of a mutation on the interaction” value is listed as “decreasing interaction”.
